Where two headings read alike, the source gives them in different places.
B1: PfuTET: Pfu aminopeptidase I (protein)
chain: MVDWELMKKIIESPGVSGYEHLGIRDLVVDILKDVADEVKIDKLGNVIAHFKGSAPKVMVAAHMDKIGLMVNHIDKDGYLRVVPIGGVLPETLIAQKIRFFTEKGERYGVVGVLPPHLRREAKDQGGKIDWDSIIVDVGASSREEAEEMGFRIGTIGEFAPNFTRLSEHRFATPYLDDRICLYAMIEAARQLGEHEADIYIVASVQEEIGLRGARVASFAIDPEVGIAMDVTFAKQPNDKGKIVPELGKGPVMDVGPNINPKLRQFADEVAKKYEIPLQVEPSPRPTGTDANVMQINREGVATAVLSIPIRYMHSQVELADARDVDNTIKLAKALLEELKPMDFTPLE
B2: Rat APN (protein)
chain: KPWNQYRLPKTLIPDSYQVTLRPYLTPNEQGLYIFKGSSTVRFTCNETTNVIIIHSKKLNYTNKGNHRVALRALGDTPAPNIDTTELVERTEYLVVHLQGSLVKGHQYEMDSEFQGELADDLAGFYRSEYMEGGNKKVVATTQMQAADARKSFPCFDEPAMKASFNITLIHPNNLTALSNMLPKDSRTLQEDPSWNVTEFHPTPKMSTYLLAYIVSEFKYVEAVSPNRVQIRIWARPSAIDEGHGDYALQVTGPILNFFAQHYNTAYPLEKSDQIALPDFNAGAMENWGLVTYRESALVFDPQSSSISNKERVVTVIAHELAHQWFGNLVTVDWWNDLWLNEGFASYVEFLGADYAEPTWNLKDLIVLNDVYRVMAVDALASSHPLSSPANEVNTPAQISELFDSITYSKGASVLRMLSSFLTEDLFKKGLSSYLHTFQYSNTIYLDLWEHLQQAVDSQTAIKLPASVSTIMDRWILQMGFPVITVNTSTGEIYQEHFLLDPTSKPTRPSDFNYLWIVPIPYLKNGKEDHYWLETEKNQSAEFQTSSNEWLLLNINVTGYYQVNYDENNWRKIQNQLQTDLSVIPVINRAQIIHDSFNLASAGKLSITLPLSNTLFLASETEYMPWEAALSSLNYFKLMFDRSEVYGPMKRYLKKQVTPLFAYFKIKTNNWLDRPPTLMEQYNEINAISTACSSGLEECRDLVVGLYSQWMNNSDNNPIHPNLRSTVYCNAIAFGGEEEWNFAWEQFRKATLVNEADKLRSALACSNEVWILNRYLSYTLNPDYIRKQDATSTIVSIANNVVGQTLVWDFVRSNWKKLFEDYGGGSFSFANLIQGVTRRFSSEFELQQLEQFKEDNSATGFGSGTRALEQALEKTKANIKWVKENKDVVLKWFTENS
B3: hTET: Pyrococcus horikoshii TET aminopeptidase, SEQ ID NO: 59 (protein, listed as Pyrococcus horikoshii)
chain: MEVRNMVDYELLKKVVEAPGVSGYEFLGIRDVVIEEIKDYVDEVKVDKLGNVIAHKKGEGPKVMIAAHMDQIGLMVTHIEKNGFLRVAPIGGVDPKTLIAQRFKVWIDKGKFIYGVGASVPPHIQKPEDRKKAPDWDQIFIDIGAESKEEAEDMGVKIGTVITWDGRLERLGKHRFVSIAFDDRIAVYTILEVAKQLKDAKADVYFVATVQEEVGLRGARTSAFGIEPDYGFAIDVTIAADIPGTPEHKQVTHLGKGTAIKIMDRSVICHPTIVRWLEELAKKHEIPYQLEILLGGGTDAGAIHLTKAGVPTGALSVPARYIHSNTEVVDERDVDATVELMTKALENIHELKI

Tested on: peptide substrates
Type: biochemical
[1] = substrate AAPFQQ (SEQ ID NO: 118), 1 mM Peptide, 1 μM enzyme, 10 mM Mg(OAc)2, 50 mM MOPS pH 8, 60 mM KOAc, RT/0.5 hr
[2] = substrate CCPFQQ (SEQ ID NO: 144), 1 mM Peptide, 1 μM enzyme, 10 mM Mg(OAc)2, 50 mM MOPS pH 8, 60 mM KOAc, RT/0.5 hr
[3] = substrate DDPFQQ (SEQ ID NO: 126), 1 mM Peptide, 1 μM enzyme, 10 mM Mg(OAc)2, 50 mM MOPS pH 8, 60 mM KOAc, RT/0.5 hr
[4] = substrate EEPFQQ (SEQ ID NO: 128), 1 mM Peptide, 1 uM enzyme, 10 mM Mg(OAc)2, 50 mM MOPS pH 8, 60 mM KOAc, RT/0.5 hr
[5] = substrate FFPFQQ (SEQ ID NO: 124), 1 mM Peptide, 1 μM enzyme, 10 mM Mg(OAc)2, 50 mM MOPS pH 8, 60 mM KOAc, RT/0.5 hr
[6] = substrate GGPFQQ (SEQ ID NO: 152), 1 mM Peptide, 1 uM enzyme, 10 mM Mg(OAc)2, 50 mM MOPS pH 8, 60 mM KOAc, RT/0.5 hr
[7] = substrate HHPFQQ (SEQ ID NO: 154), 1 mM Peptide, 1 uM enzyme, 10 mM Mg(OAc)2, 50 mM MOPS pH 8, 60 mM KOAc, RT/0.5 hr
[8] = substrate IIPFQQ (SEQ ID NO: 136), 1 mM Peptide, 1 μM enzyme, 10 mM Mg(OAc)2, 50 mM MOPS pH 8, 60 mM KOAc, RT/0.5 hr
[9] = substrate KKPFQQ (SEQ ID NO: 120), 1 mM Peptide, 1 uM enzyme, 10 mM Mg(OAc)2, 50 mM MOPS pH 8, 60 mM KOAc, RT/0.5 hr
[10] = substrate LLPFQQ (SEQ ID NO: 138), 1 mM Peptide, 1 μM enzyme, 10 mM Mg(OAc)2, 50 mM MOPS pH 8, 60 mM KOAc, RT/0.5 hr
[11] = substrate MMPFQQ (SEQ ID NO: 148), 1 mM Peptide, 1 uM enzyme, 10 mM Mg(OAc)2, 50 mM MOPS pH 8, 60 mM KOAc, RT/0.5 hr
[12] = substrate NNPFQQ (SEQ ID NO: 130), 1 mM Peptide, 1 μM enzyme, 10 mM Mg(OAc)2, 50 mM MOPS pH 8, 60 mM KOAc, RT/0.5 hr
[13] = substrate PPPFQQ (SEQ ID NO: 150), 1 mM Peptide, 1 uM enzyme, 10 mM Mg(OAc)2, 50 mM MOPS pH 8, 60 mM KOAc, RT/0.5 hr
[14] = substrate QQPFQQ (SEQ ID NO: 132), 1 mM Peptide, 1 μM enzyme, 10 mM Mg(OAc)2, 50 mM MOPS pH 8, 60 mM KOAc, RT/0.5 hr
[15] = substrate RRPFQQ (SEQ ID NO: 116), 1 mM Peptide, 1 uM enzyme, 10 mM Mg(OAc)2, 50 mM MOPS pH 8, 60 mM KOAc, RT/0.5 hr
[16] = substrate SSPFQQ (SEQ ID NO: 140), 1 mM Peptide, 1 μM enzyme, 10 mM Mg(OAc)2, 50 mM MOPS pH 8, 60 mM KOAc, RT/0.5 hr
[17] = substrate TTPFQQ (SEQ ID NO: 142), 1 mM Peptide, 1 μM enzyme, 10 mM Mg(OAc)2, 50 mM MOPS pH 8, 60 mM KOAc, RT/0.5 hr
[18] = substrate VVPFQQ (SEQ ID NO: 134), 1 mM Peptide, 1 μM enzyme, 10 mM Mg(OAc)2, 50 mM MOPS pH 8, 60 mM KOAc, RT/0.5 hr
[19] = substrate WWPFQQ (SEQ ID NO: 146), 1 mM Peptide, 1 μM enzyme, 10 mM Mg(OAc)2, 50 mM MOPS pH 8, 60 mM KOAc, RT/0.5 hr
[20] = substrate YYPFQQ (SEQ ID NO: 122), 1 mM Peptide, 1 μM enzyme, 10 mM Mg(OAc)2, 50 mM MOPS pH 8, 60 mM KOAc, RT/0.5 hr

Molecule | HPLC Assay Conv [1] | HPLC Assay Conv [2] | HPLC Assay Conv [3] | HPLC Assay Conv [4] | HPLC Assay Conv [5] | HPLC Assay Conv [6] | HPLC Assay Conv [7] | HPLC Assay Conv [8] | HPLC Assay Conv [9] | HPLC Assay Conv [10] | HPLC Assay Conv [11] | HPLC Assay Conv [12] | HPLC Assay Conv [13] | HPLC Assay Conv [14] | HPLC Assay Conv [15] | HPLC Assay Conv [16] | HPLC Assay Conv [17] | HPLC Assay Conv [18] | HPLC Assay Conv [19] | HPLC Assay Conv [20] | further results
B1 | 100% | 72% | 86% | 93% | 65% | 0% | 19% | 0% | 100% | 99% | 100% | 81% | 0% | 100% | 100% | 90% | 100% | 0% | 37% | 100% | 
B2 |  |  |  |  |  |  |  |  |  |  |  |  |  |  |  |  |  |  |  |  | HPLC Assay Conv (substrate AAPAAP{LYSN3}NH2 (SEQ ID NO: 98), 1 mM peptide, 50 nM enzyme, 2.5 mM ZnCl2, 25 mM Tris pH 8.0, 30° C./1 hr): 100%; HPLC Assay Conv (substrate KKMKKMLys-Triazole-PEG4 Biotin (SEQ ID NO: 89), 1 mM peptide, 150 nM enzyme, 2.5 mM ZnCl2 25 mM Tris pH 8.0, 30° C./1 hr): >90%; HPLC Assay Conv (substrate KKMKKM{LYSN3}NH2 (SEQ ID NO: 71), 1 mM peptide, 50 nM enzyme, 2.5 mM ZnCl2, 25 mM Tris pH 8.0, 30° C./1 hr): 50%; HPLC Assay Conv (substrate KKPKKP{LYSN3}NH2 (SEQ ID NO: 100), 1 mM peptide, 50 nM enzyme, 2.5 mM ZnCl2, 25 mM Tris pH 8.0, 30° C./1 hr): 85%; HPLC Assay Conv (substrate QP5-Atto649N ([…]{LYSN3}NH2) (SEQ ID NO: 106), 37 μM Peptide, 100 nM Enzyme, 2.5 mM ZnCl2, 25 mM Tris pH 8.0, 37° C./0.5 hr): >95%; HPLC Assay Conv (substrate RRPRRP{LYSN3}NH2 (SEQ ID NO: 96), 1 mM peptide, 50 nM enzyme, 2.5 mM ZnCl2, 25 mM Tris pH 8.0, 30° C./1 hr): 55%
B3 | 100% | 32% | 4% | 0% | 100% | 33% | 26% | 100% | 0% | 100% | 0% | 69% | 0% | 63% | 0% | 100% | 100% | 100% | 4% | 99% | HPLC Assay Conv (substrate […]1 (SEQ ID NO: 156), 1 mM Peptide, 1.0 μM enzyme, 10 mM Mg(OAc)2, 50 mM MOPS pH 8, 60 mM KOAc, RT/0.5 hr): 100%; HPLC Assay Conv (substrate […], 200 μM Peptide, 2 μM, 37° C. (rest of the wrapped entry lies below the rows shown)): 55%; HPLC Assay Conv (substrate […]{LYSN3}NH2 (SEQ ID NO: 107), 200 μM Peptide, 2 μM enzyme, 10 mM MgCl2, 50 mM MOPS pH 8.0, 37° C./1 hr): 55%; HPLC Assay Conv (substrate […]{LYSN3}NH2 (SEQ ID NO: 109), 200 μM Peptide, 4 μM enzyme, 10 mM MgCl2, 50 mM MOPS pH 8.0, 37° C./1 hr): 100%

— US12618845B2, “Methods and compositions for protein sequencing” (Quantum-Si Incorporated, priority 2018, dated 2026)
